Assay results as given in patent US11059903B2, “Anti-PSMA antibodies, uses thereof and conjugates thereof” (Polytherics Limited, priority 2016, dated 2021).
Square brackets hold non-standard residues; d marks the D form. Peptide text beside a SMILES is read from it. * marks the point of attachment. Dolaproine = CO[C@@H]([C@@H]1CCCN1)[C@@H](C)C(=O)O; Dil = CC[C@H](C)[C@H](NC)[C@@H](CC(=O)O)OC; X1 = C[C@@H](N*)[C@@H](O)c1ccccc1; NMeV = CN[C@H](C(=O)O)C(C)C

Key:
LNCaP cells = assay: In vitro cell viability assay (CellTiter Glo) on LNCaP cells; assay type: cell-based; conditions: anti-proliferative effect, 96 h
Protocol: (§1) The in vitro efficacies of ADCs 1 to 7, prepared as described within Example 4, were determined by measuring their inhibitory effect upon cell growth of PSMA over-expressing cancer cell lines.
(§2) Loss of tumour cell viability following treatment with cytotoxic drugs or ADCs in vitro can be measured by growing cell lines in the presence of increasing concentrations of drugs or ADCs and quantifying the loss of proliferation or metabolic activity using CellTiter Glo® Luminescence reagent (Promega Corp.). The protocol describes cell seeding, drug treatment and determination of the cell viability in reference to untreated cells based on ATP synthesis, which is directly related to the number of cells present in the well. […]
(§3) The cell viability assay was carried out using the Cell-Titer Glo® Luminescence reagent, as described by the manufacturer's instructions, (Promega Corp. Technical Bulletin TB288; Lewis Phillips G. D, Cancer Res 2008; 68:9280-9290). Luminescence was recorded using a plate reader (e.g. Molecular Devices Spectramax M3 plate reader), and data subsequently analysed using a four parameter non-linear regression model. […]
(§4) PSMA-positive LNCaP (clone FGC) and C4-2 cells were detached with TrypLE and resuspended in complete medium. Cells were counted using disposable Neubauer counting chambers and cell density adjusted to 10×10^4 cells/mL for LNCaP and 2×10^4 cells/mL for C4-2. […]

C4-2 cells = assay: In vitro cell viability assay (CellTiter Glo) on C4-2 cells; assay type: cell-based; conditions: anti-proliferative effect, 96 h
Protocol: as §1, §2, §3, §4

[1] = Heat stress test, aggregation analysed by SEC; assay type: physicochemical
Protocol: Antibody samples (0.5 mg/mL in PBS) were incubated at 75° C. for 30 min followed by incubation in an ice-bath for 5 min prior to being analysed for their extent of aggregation. Analysis of antibody solutions was carried out by Size Exclusion Chromatography (SEC) and by turbidity measurements.
SEC was performed using a TOSOH Bioscience TSK gel Super SW 3000 column. UV absorbance at 280 nm was monitored during an isocratic elution with a 0.2 M Potassium phosphate buffer, pH 6.8 (0.2 M potassium chloride and 15% isopropanol). The elution times and number of peaks indicate whether the sample contains aggregated, degraded or native antibody. The % area under the curve (Abs280) was used to determine the quantity of each species present in the SEC analysis.

[2] = post stress test: 0.5 mg/mL in PBS, 75° C. for 30 min, SEC % area

Compound	IC50 (LNCaP cells) [nM]	IC50 (C4-2 cells) [nM]	Stability compared with AB-02 to AB-06 antibodies ([1]; heat stress test, in words)	Ab in aggregated form (%) [1, 2] [%]	Ab in native conformation (%) [1, 2] [%]
CC[C@H](C)[C@@H]([C@@H](CC(=O)N1CCC[C@H]1[C@H](OC)[C@@H](C)C(=O)N[C@H](C)[C@@H](O)c1ccccc1)OC)N(C)C(=O)[C@@H](NC(=O)[C@@H](NC)C(C)C)C(C)C [MMAE] (H-[NMeV]V[Dil][Dolaproine]-X1)	2.23	0.63			
AB-10: Prior art de-immunised J591 anti-PSMA antibody, heavy chain SEQ ID No 3, light chain SEQ ID No 4 [reference compound]			less stable	99.6	0.4
